Measured values as given in US20170183710.

T1: Anaplastic Lymphoma kinase Artificial Substrate peptide-B (ALAStide-B)
T1 chain: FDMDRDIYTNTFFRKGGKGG

T2: Anaplastic Lymphoma kinase Artificial Substrate peptide-A (ALAStide-A)
T2 chain: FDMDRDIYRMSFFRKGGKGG

T3: YFF peptide
T3 chain: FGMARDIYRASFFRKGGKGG


How the values were obtained:
[1] = biological target: T1, Anaplastic Lymphoma kinase Artificial …
[2] = biological target: T2, Anaplastic Lymphoma kinase Artificial …
YFF peptide = biological target: T3, YFF peptide

Protein | phosphorylation by kinase in vitro, ELISA [1] | phosphorylation by kinase in vitro, ELISA [2] | phosphorylation by kinase in vitro, ELISA (YFF peptide) | phosphorylation by ALK kinase in vitro, ELISA [1] | phosphorylation by ALK kinase in vitro, ELISA [2] | phosphorylation by ALK kinase in vitro, ELISA (YFF peptide)
Lyn (protein) MGCIKSKGKDSLSDDGVDLKTQPVRNTERTIYVRDPTSNKQQRPVPESQLLPGQRFQTKDPEEQGDIVVALYPYDGIHPDDLSFKKGEKMKVLEEHGEWWKAKSLLTKKEGFIPSNYVAKLNTLETEEWFFKDITRKDAERQLLAPGNSAGAFLIRESETLKGSFSLSVRDFDPVHGDVIKHYKIRSLDNGGYYISPRITFPCISDMIKHYQKQADGLCRRLEKACISPKPQKPWDKDAWEIPRESIKLVKRLGAGQFGEVWMGYYNNSTKVAVKTLKPGTMSVQAFLEEANLMKTLQHDKLVRLYAVVTREEPIYIITEYMAKGSLLDFLKSDEGGKVLLPKLIDFSAQIAEGMAYIERKNYIHRDLRAANVLVSESLMCKIADFGLARVIEDNEYTAREGAKFPIKWTAPEAINFGCFTIKSDVWSFGILLYEIVTYGKIPYPGRTNADVMTALSQGYRMPRVENCPDELYDIMKMCWKEKAEERPTFDYLQSVLDDFYTATEGQYQQQP | The ALK-specific biosensors are not phosphorylated by other representative cellular kinases | The ALK-specific biosensors are not phosphorylated by other representative cellular kinases | shows the lack of affinity of these the two ALK-specific biosensors and YFF peptide by Lyn, Abl, and Csk |  |  | 
Anaplastic lymphoma kinase (ALK) (protein) VYRRKHQELQAMQMELQSPEYKLSKLRTSTIMTDYNPNYCFAGKTSSISDLKEVPRKNITLIRGLGHGAFGEVYEGQVSGMPNDPSPLQVAVKTLPEVCSEQDELDFLMEALIISKFNHQNIVRCIGVSLQSLPRFILLELMAGGDLKSFLRETRPRPSQPSSLAMLDLLHVARDIACGCQYLEENHFIHRDIAARNCLLTCPGPGRVAKIGDFGMARDIYRASYYRKGGCAMLPVKWMPPEAFMEGIFTSKTDTWSFGVLLWEIFSLGYMPYPSKSNQEVLEFVTSGGRMDPPKNCPGPVYRIMTQCWQHQPEDRPNFAIILERIEYCTQDPDVINTALPIEYGPLVEEEEKVPVRPKDPEGVPPLLVSQQAKREEERSPAAPPPLPTTSSGKAAKKPTAAEISVRVPRGPAVEGGHVNMAFSQSNPPSELHKVHGSRNKPTSLWNPTYGSWFTEKPTKKNNPIAKKEPHDRGNLGLEGSCTVPPNVATGRLPGASLLLEPSSLTANMKEVPLFRLRHFPCGNVNYGYQQQGLPLEAATAPGAGHYEDTILKSKNSMNQPGP |  |  |  | ALAStide-B has comparable phosphorylation level with YFF peptide | ALAStide-A has higher phosphorylation activity than YFF and ALAStide-B | YFF peptide is used as a reference to compare the phosphorylation activity of ALAStide-A and ALAStide-B
Csk (protein) MSAIQAAWPSGTECIAKYNFHGTAEQDLPFCKGDVLTIVAVTKDPNWYKAKNKVGREGIIPANYVQKREGVKAGTKLSLMPWFHGKITREQAERLLYPPETGLFLVRESTNYPGDYTLCVSCDGKVEHYRIMYHASKLSIDEEVYFENLMQLVEHYTSDADGLCTRLIKPKVMEGTVAAQDEFYRSGWALNMKELKLLQTIGKGEFGDVMLGDYRGNKVAVKCIKNDATAQAFLAEASVMTQLRHSNLVQLLGVIVEEKGGLYIVTEYMAKGSLVDYLRSRGRSVLGGDCLLKFSLDVCEAMEYLEGNNFVHRDLAARNVLVSEDNVAKVSDFGLTKEASSTQDTGKLPVKWTAPEALREKKFSTKSDVWSFGILLWEIYSFGRVPYPRIPLKDVVPRVEKGYKMDAPDGCPPAVYEVMKNCWHLDAAMRPSFLQLREQLEHIKTHELHL | The ALK-specific biosensors are not phosphorylated by other representative cellular kinases | The ALK-specific biosensors are not phosphorylated by other representative cellular kinases | shows the lack of affinity of these the two ALK-specific biosensors and YFF peptide by Lyn, Abl, and Csk |  |  | 
